Results as given in the nanobody polyreactivity screen of Harvey et al. (2022).

Test: yeast display, Sf9 membrane polyspecificity reagent, FACS + sequencing; frameworks hold sequencing errors
Procedure, shortened: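 Synthetic nanobody libraries on Saccharomyces cerevisiae BJ5465 were galactose-induced for 36–48 hours, stained 1 hour at 4 °C with 10% biotinylated, detergent-solubilized Sf9 membrane reagent and enriched on streptavidin microbeads. FACS then separated cells into low and high (top ~1%) gates by anti-HA (expression) and streptavidin (reagent binding) fluorescence. Genes were colony-PCR amplified, MiSeq 2 × 250 sequenced and CDR-length filtered. A clone's polyreactivity label is that of its gate of origin.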

QVQLVESGGGLVQAGGSLRLSCAASGSTFTLYAKGWYRQAPGKERELVAAINGAGSTYYADSVKGRFTISRDNAKNTVYLQMNSLKPEDTAVYYCAKDLQYGWYDYWGQGTQVTVSS
polyreactivity (PSR sort gate): low polyreactivity

QVQLVESGGGLVQAGGSLRLSCAASGSTFTLYVMGWYRQAPGKERELVAAISSNGGRTYYADSVKGRFTISRDNAKNTVYLQMNSLKPEDTAVYYCAAGKIGRYHYDYWGQGTQVTVSS
polyreactivity (PSR sort gate): high polyreactivity

QVQLVESGGGLVQAGGSLRLSCAASGSTFTLYVMGWYRQATGKERELVAAISSNGGRTYYADSVKGRFTISRDNAKNTVYLQMTSLKPEDTAVYYCAKLVSLAGRIYGYWGQGTQVTVSS
polyreactivity (PSR sort gate): high polyreactivity

QVQLVESGGGLVQAGGSLRLSCAASGSTFTNYAMGWYRQAPRKERELVAAITSVGSTYYADSVKGRFTISRDNAKNTVYLQMNSLKQEDTAVYYCNVVYRDQYNYWGQGTQVTVSS
polyreactivity (PSR sort gate): low polyreactivity

QVQLVESGGGLVQAGGSLRLSCAASGSTFTPNAMGWYRQVPGKERELVASITIGGSTYADSVKGRFTISRDNAKNTVYLQMNSLKPEDTAVYYCNADWNWYPFLYSRMDYWGQGTQVTVSS
polyreactivity (PSR sort gate): low polyreactivity

QVQLVESGGGLVQAGGSLRLSCAASGSTFTPYAMGWSRKAPGKERELVAVIRWRGGRTYYADSVQGRFTISRDNAKNTVYLQMNSLKPEDTAVYYCAAGGSQGAGGYGYYGYDYWGQGTQETVSS
polyreactivity (PSR sort gate): low polyreactivity

QVQLVESGGGLVQAGGSLRLSCAASGSTFTPYAMGWYRPAPGKEREFVAAITSIGGSTYYADSVKGRFTISRDHAKFTVYLQMNSLKPEDTAVYYCAADYYEWSLWNDYWGQGTQVTVSS
polyreactivity (PSR sort gate): high polyreactivity

QVQLVESGGGLVQAGGSLRLSCAASGSTFTPYAMGWYRPAPGKERELVATISSRGGSTSYADSVKGRFTISRDNAKNTVYLQMNSLKPEDTAVYYCARKVRRVARIMYYWGQGTQVTVSS
polyreactivity (PSR sort gate): high polyreactivity

QVQLVESGGGLVQAGGSLRLSCAASGSTFTPYAMGWYRQAPGKERELVAAINGGGTRTYYADSVKGRFTISRDNAKNTVYLQMNSLKPEDTAVYYCAARTSTSRSYPYNYWGQGTQVTVSS
polyreactivity (PSR sort gate): high polyreactivity

QVQLVESGGGLVQAGGSLRLSCAASGSTFTPYGMGWYRKAPGKERELVAAITVSGGRTYDADSVKGRFTISRDNAKNTVYLQMNSLKPEDTAVYYCAAVYLRGDGEYDYWGQGTQVTVSS
polyreactivity (PSR sort gate): low polyreactivity

QVQLVESGGGLVQAGGSLRLSCAASGSTFTRNAKGWYRQAPGKERELVAAITSSGSRTYYADSVKGRFTISRDNAKNTVYLQMNRLKPEDTAVYYCAGLGDTRYVAMDHWGQGTQVTVSS
polyreactivity (PSR sort gate): high polyreactivity

QVQLVESGGGLVQAGGSLRLSCAASGSTFTRNAMGWYRQAPGKERELVAAISSRGTSTYYADSVKGRFTISRDNAKNTVYLQMNSLKPEDTAVYYCAAVGVKQYLGGNPFDYWGQGTQVTVSS
polyreactivity (PSR sort gate): high polyreactivity

QVQLVESGGGLVQAGGSLRLSCAASGSTFTRYAMGWYRQAPGKERELVAAISLSGGDTYYADSVKGRFTISRDNAKNTVYLQMNSLKPEDTAVYYCAARWGYRGYSYEYWGQGTQVTVSS
polyreactivity (PSR sort gate): high polyreactivity

QVQLVESGGGLVQAGGSLRLSCAASGSTFTRYAMGWYRQAPGKERELVAAISSSAGRTYYADSVKGRFTISRDYAKNTVYLQMKSLKPEDTAVYYCAATRVYAGAQYDYWGQGTKVTVSS
polyreactivity (PSR sort gate): high polyreactivity

QVQLVESGGGLVQAGGSLRLSCAASGSTFTSYAIGWYRQAPGKERELVAAIRYSGGRTYYADSVKGRFTISRDNAKNTVYFQMNSLKPEDTAVYYCAARSKVYKVGYNYWGQGTQVTVSS
polyreactivity (PSR sort gate): high polyreactivity

QVQLVESGGGLVQAGGSLRLSCAASGSTFTSYAMGWYRQAPGKERELVAAIRYRGDGTYYADSVKGRCTISRDNAKNTVNLQMNSLKPEDNAVYYCAADTTLQAFIRYRPIGSYDSWGQGTKVTVSS
polyreactivity (PSR sort gate): low polyreactivity

QVQLVESGGGLVQAGGSLRLSCAASGSTFTSYAMGWYRQAPGKERELVAAIRYRGDGTYYADSVKGRFTISRDNAKNTVYLQMNSLKPEDTAVYYCAADSRVYRGGYIYRYGYWGQGTQVTVSS
polyreactivity (PSR sort gate): low polyreactivity

QVQLVESGGGLVQAGGSLRLSCAASGSTFTSYAMGWYRQAPGKERELVAAISWRGGSTYYADSVKGRFTISRDNAKNTVYLQMNSLKPEDTAVYYCNAVVRQPHDLDYWGQGTQVTVSS
polyreactivity (PSR sort gate): high polyreactivity

QVQLVESGGGLVQAGGSLRLSCAASGSTFTSYAMGWYRQAPGKERELVASITRSGGRTYYADSVKGRFTISRDNAKNTVYLQMNSLKPEDTAVYYCARRYPGGYYWGQGTQVTVSS
polyreactivity (PSR sort gate): high polyreactivity

QVQLVESGGGLVQAGGSLRLSCAASGSTFTVNAMGWYRQAPGKERELVAVIRKSGTSTYYADSVKGRFTISRDNAKNTVYFQMNSLKPEDTAVYYCAGGGPSTLDDYWGQGTQVTVSS
polyreactivity (PSR sort gate): low polyreactivity

QVQLVESGGGLVQAGGSLRLSCAASGSTFTVYAMGWYRQAPGKEREFVAAITRRGGNTYYADSVKGRFTISRDNAKNTVYLQMNSLKPEDTAVYYCNADSPLNAYYGGRELDYWGQGTQVTVSS
polyreactivity (PSR sort gate): high polyreactivity

QVQLVESGGGLVQAGGSLRLSCAASGSTFTVYAMGWYRQAPGKERELVAVITGSGGSTYYADSVKGRFTISRDNAKNTVYLQMNSLKPEDTAVYYCAKEPGENWTVSWRDFDYWGQGTQVTVSS
polyreactivity (PSR sort gate): low polyreactivity

QVQLVESGGGLVQAGGSLRLSCAASGSTFTVYAMRWYRQAPGKERELVADITGGGRTYYADSVKGRFTISRDNAKNTVYLQMNSLKPEDTAVYYCAKKYSWRYARVYSLHFDYWGQGTQVTVSS
polyreactivity (PSR sort gate): high polyreactivity

QVQLVESGGGLVQAGGSLRLSCAASGSTFTWNAMGWYRQAPGKERELVAAISGDGGSTYYADSVKGRFTISRDNAKNTVYLQMNSLKPEDTAVYYCAASSAHIFSYRYNFWGQGTQVTVSS
polyreactivity (PSR sort gate): low polyreactivity

QVQLVESGGGLVQAGGSLRLSCAASGSTFTWYAMGWYRQAPGKERELVADISYGGGSTYYADSVKGRFTISRDNAKNTVYLPMNSLKPEDTAVYYCAAESIPYYRYDYWGQGTQVTVSS
polyreactivity (PSR sort gate): low polyreactivity

QVQLVESGGGLVQAGGSLRLSCAASGSTFTWYGKGWYRQAPGKERELVAAISGSGGRTYYADSVKGRFTISRDNAKNTVYLQMNSLKPEDTAVYYCNADPANPFGTEFEYWGQGTQVTVSS
polyreactivity (PSR sort gate): high polyreactivity

QVQLVESGGGLVQAGGSLRLSCAASGSTFTYYAMGWYRQAPGKEREWVAAISGGGDTYYADSVKGRFTISRDNAKNTVYLQMTSLKPEDTAVYYCNARVWAKSPRGSQYNMYDYWGQGTQVTVSS
polyreactivity (PSR sort gate): high polyreactivity

QVQLVESGGGLVQAGGSLRLSCAASGSTFTYYAMGWYRQAPGNEREFVASLTYRGGRTNYADSVKGRFTISRDNATNTVYLQMNRQKPEDTAVYYCAARQRWTYAYDYWGQGTQVTVSS
polyreactivity (PSR sort gate): high polyreactivity

QVQLVESGGGLVQAGGSLRLSCAASGSTFTYYAMGWYRQATGKETELVAAINIGGGGTYYADSVKGRFTISRDNAKNTVYLQMKSLKPEYTAVYYCATDIYFENGFGYWGQGTQVTVSS
polyreactivity (PSR sort gate): low polyreactivity

QVQLVESGGGLVQAGGSLRLSCAASGSTFTYYTMGWYRQAPGKERELVAAISRTTGSTYYADSVKGRFTISRDNAKNTVYLQLNSLKPEDTAVDYCAAQSYKILLYFIGTAGDGYWGQGTQVTVSS
polyreactivity (PSR sort gate): low polyreactivity

QVQLVESGGGLVQAGGSLRLSCAASGSTFVANTMGWYRQAPATERELVASITSGDSTNYADSVKGRFTISRDNAKNTVYFQMKSLKPEDTAVYYCAAETVWYYVGGQLIYYYWGQGTQVTVSS
polyreactivity (PSR sort gate): low polyreactivity

QVQLVESGGGLVQAGGSLRLSCAASGSTFVAYAMGWYRQAPGKERELVAAISSVGRTNYADSVKGRFTISRDNAKYTVYLQMNSLKPEDTAVYYCAAVYVDRRKRSYYWGQGTQVTVSS
polyreactivity (PSR sort gate): high polyreactivity

QVQLVESGGGLVQAGGSLRLSCAASGSTFVDKAMGWYRQAPGKERELVATISSGGSTYYADSVKGRFTISRDNAKNTVYLQMNSLKPEDTAVYYCNADGNKRYPWVDYWGQGTQVTVSS
polyreactivity (PSR sort gate): low polyreactivity

QVQLVESGGGLVQAGGSLRLSCAASGSTFVDNALGGYRQAPGKERELVAGISIGGITYYADSVKGRFTISRDNAKNTVYLQMNSLKPEDTAVYYCAKRHKRTRNKYYYWGQGTQVTVSS
polyreactivity (PSR sort gate): high polyreactivity

QVQLVESGGGLVQAGGSLRLSCAASGSTFVDYAMGWYRQAPGKERELVAAINERGGSTYYADSVKGRFTISRDNAKNTVYLQMNSLKPEDTAVYYCAARRRTRSSHSWYIRYGYWGQGTQVTVSS
polyreactivity (PSR sort gate): low polyreactivity

QVQLVESGGGLVQAGGSLRLSCAASGSTFVFYAMGWYRPAPGKERELVASISFRGGSTRYADSVKGRFTISRDNAKNTVYLHMNSLKPEDTAVYYCNARPFYRYYYWGQGTQVTVSS
polyreactivity (PSR sort gate): high polyreactivity

QVQLVESGGGLVQAGGSLRLSCAASGSTFVGNAMGWYRQAPGKERELVAAISSDSSTYYADSVKGRFTISRDNAKNTVYLQMNSLKPEDTAVYYCAEYYPGYGYGYWGQGTQVTVSS
polyreactivity (PSR sort gate): low polyreactivity

QVQLVESGGGLVQAGGSLRLSCAASGSTFVGNAMGWYRQAPGKERELVAAITGGGGSTYYADSVKGRFTISRDNAKNTVYLQMNSLKPEDTAVYYCARDRTDYYVWYVRYYYWGQGTQVTVSS
polyreactivity (PSR sort gate): low polyreactivity

QVQLVESGGGLVQAGGSLRLSCAASGSTFVGTALGWYRQAPGKVRELVATISNSGGRTYYADSVKGRFTISRDNAKNTVYLQMNSLKPEDTAVYYCAADHPVFGPGYSFDYWGQGTQVTVSS
polyreactivity (PSR sort gate): low polyreactivity

QVQLVESGGGLVQAGGSLRLSCAASGSTFVGYAMGWYRQAPGKEREFVAAITRGGSTNYADSVKGRFTISRDNAKNTVYLQMNSLKPEDTAVYYCAARDRREGFNFDYWGQGTQVTVSS
polyreactivity (PSR sort gate): low polyreactivity

QVQLVESGGGLVQAGGSLRLSCAASGSTFVGYAMGWYRQAPGKERELVAGITASGTNTYYADSVKGRFTISRDNAKNTVYLQMNSLKPEDTAVYYCAAAFVRPPPYVGYSRFDYWGQGTQVTVSS
polyreactivity (PSR sort gate): high polyreactivity

QVQLVESGGGLVQAGGSLRLSCAASGSTFVGYFMGWYRQAPGKERELVAAITKIGGSTYYADSVKGSFTISRDNAKNNVYLQMNSLKPEDTAVYYCARTRSRWRYPIFYYWGQGTQVTVSS
polyreactivity (PSR sort gate): high polyreactivity

QVQLVESGGGLVQAGGSLRLSCAASGSTFVGYTLGWSRQAPGNERELVASLSWDGGSTYYADSVKGRFTISRDNAKNTVYLQMNSLKPEDTAVYYCNADQGIIGAYTNSLPEYDYWGLGTQVTVSS
polyreactivity (PSR sort gate): low polyreactivity
